According to US20090191211A1 (ONCOTHERAPY SCIENCE, published 2009):
Each block holds one binder with its values, some of them ahead of it.

Biological target: T1, EphA4 (Eph receptor A4) (human, UniProt P54764 20-986)
T1 construct: Endogenous EphA4 on the human pancreatic cancer cell line MIAPaca-2 (over-expressing); also called EpbA4
Test: flow cytometry on EphA4 over-expressing MIAPaca-2 cells
Procedure: Cancer cells (5×10⁶) were incubated at 4° C. for 30 minutes with the purified polyclonal antibody (pAb), monoclonal antibodies (mAb), rabbit IgG (the control for pAb) or mouse IgG (the control for mAb). Cells were washed with phosphate buffer solution (PBS) and then incubated at 4° C. for 30 minutes in FITC-labeled Alexa Fluor 488. The cells were again washed in PBS, and analyzed on a flow cytometer (FACSCalibur®, Becton Dickinson) and then analyzed by BD CellQuest™ Pro software (Becton Dickinson). Mean fluorescence intensity (MFI) was defined as a ratio of the flow cytometric intensity (intensity by each protein specific antibody/intensity by rabbit IgG).
Using EphA4 over-expressing cells, the binding ratios of anti-EphA4 antibodies on the cell surface were investigated.

T1 sequence (P54764 20-986): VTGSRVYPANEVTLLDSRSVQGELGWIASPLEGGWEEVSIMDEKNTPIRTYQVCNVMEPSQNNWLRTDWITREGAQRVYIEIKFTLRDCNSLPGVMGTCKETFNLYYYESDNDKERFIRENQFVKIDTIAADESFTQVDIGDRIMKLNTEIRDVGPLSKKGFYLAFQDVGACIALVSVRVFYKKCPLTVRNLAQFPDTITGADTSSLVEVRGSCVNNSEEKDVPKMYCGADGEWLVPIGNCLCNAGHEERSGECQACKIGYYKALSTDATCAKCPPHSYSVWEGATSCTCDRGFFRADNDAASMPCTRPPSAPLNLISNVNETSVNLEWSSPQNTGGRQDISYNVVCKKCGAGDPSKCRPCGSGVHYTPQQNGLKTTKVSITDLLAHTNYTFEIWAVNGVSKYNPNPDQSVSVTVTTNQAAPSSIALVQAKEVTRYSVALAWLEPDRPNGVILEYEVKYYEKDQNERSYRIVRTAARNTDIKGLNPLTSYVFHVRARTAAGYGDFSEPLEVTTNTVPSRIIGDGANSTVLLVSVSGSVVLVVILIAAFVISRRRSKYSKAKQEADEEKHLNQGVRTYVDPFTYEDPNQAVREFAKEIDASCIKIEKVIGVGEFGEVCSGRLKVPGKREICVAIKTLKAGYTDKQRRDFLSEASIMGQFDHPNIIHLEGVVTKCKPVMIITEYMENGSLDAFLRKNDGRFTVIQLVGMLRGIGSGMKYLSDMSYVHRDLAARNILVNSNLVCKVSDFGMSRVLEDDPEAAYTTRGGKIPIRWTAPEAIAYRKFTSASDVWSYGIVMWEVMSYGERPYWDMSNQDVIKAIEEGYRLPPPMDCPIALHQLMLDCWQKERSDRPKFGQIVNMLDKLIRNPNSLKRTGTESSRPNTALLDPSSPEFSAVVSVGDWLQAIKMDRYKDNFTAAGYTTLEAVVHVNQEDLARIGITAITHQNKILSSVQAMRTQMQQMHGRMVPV

MFI: 12.6 ratio (intensity by specific antibody / intensity by control IgG)
B1: anti-EphA4 human antibody 65 (antibody, V domains shown)
VH: QVQLVQSGAEVKKPGASVKVSCKVSGYTLTELSMHWVRQAPGKGLEWMGGFDPEDGETIYAQKFQGRVTMTEDTSTDTAYMELSSLRSEDTAVYYCATAQPFHWGDDAFDIWGQGTMVTVSS
VL: not shown
notes: also called clone 65

MFI: 15.5 ratio (intensity by specific antibody / intensity by control IgG)
B2: anti-EphA4 human antibody 336 (antibody, V domains shown)
VH: QVQLQQSGPGLVKPSQTLSLTCAISGDSVSSNSAAWNWIRQSPSRGLEWLGRTYYRSKWYNDYAVSVKSRITINPDTSKNQFSLQLNSVTPEDTAVYYCARDSLRSFDYWGQGTLVTVSS
VL: QSVLTQPPSVSAAPGQKVTISCSGSSSNIGNNYVSWYQQLPGTAPKLLIYDNNKRPSGIPDRFSGSKSGTSATLGITGLQTGDEADYYCGTWDSSLSAVVFGGGTKLTVLG
